Reference: publication PMC6180346, “Two Faces of CwlM, an Essential PknB Substrate, in Mycobacterium tuberculosis” (Cell Reports, 2018)

T1: Recombinant 6xHis-tagged CwlM, non-phosphorylated (M. tuberculosis, UniProt L7N653 1-406)
T1 construct: also called non-phosphorylated recombinant CwlM; non-phosphorylated CwlM
T1 sequence: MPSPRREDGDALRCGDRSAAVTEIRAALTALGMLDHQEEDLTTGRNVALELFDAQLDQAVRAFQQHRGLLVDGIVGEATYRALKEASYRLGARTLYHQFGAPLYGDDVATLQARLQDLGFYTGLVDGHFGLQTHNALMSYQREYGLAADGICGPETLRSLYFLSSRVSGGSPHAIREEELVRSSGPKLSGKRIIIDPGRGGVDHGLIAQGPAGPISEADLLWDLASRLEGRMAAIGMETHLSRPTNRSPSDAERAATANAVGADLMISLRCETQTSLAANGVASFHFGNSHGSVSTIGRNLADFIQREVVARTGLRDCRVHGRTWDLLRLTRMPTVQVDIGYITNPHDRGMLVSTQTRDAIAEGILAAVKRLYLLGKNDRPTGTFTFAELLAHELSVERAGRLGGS


Columns and labels:
Assay in all cases: co-IP; recombinant CwlM (PknB-phosphorylated or non-phosphorylated) and the other recombinant protein, 10 μg each, in 20 mM KH2PO4 pH 7.0, 100 mM NaCl, 10 mM KCl, with anti-CwlM-IgG-Sepharose; bound and unbound on SDS-PAGE, Coomassie; densitometry as percent of the total amount used
[1] = target: Recombinant 6xHis-tagged CwlM, PknB-phosphorylated (M. tuberculosis) (UniProt L7N653)
[2] = target: Recombinant 6xHis-tagged CwlM, non-phosphorylated (M. tuberculosis) (UniProt L7N653)
[3] = target: T1, Recombinant 6xHis-tagged CwlM, …; settings: both partners purified

Molecule | percent co-precipitated [1] | percent co-precipitated [2] | binding result [3]
Recombinant 6XHis-tagged MurJ ICD (domain or fragment) | 12% | 85% | 
Recombinant 6xHis-tagged 6xHis-MurJ_(E541-F680) (domain or fragment, The N-terminal end of the tag is read from the printed name 6xHis-MurJ_(E541-F680); also called MurJ linker; linker region (E541-F680)) EARAALDAVRARIRSRRLKTGPQTQNVLDQSSRPGPVTYPERRRLAPPRGKSVVHEPIRRRPPEQVARAGRAKGPEVIDRPSENASFGAASGAELPRPVADELQLDAPAGRDPGPVSRPHPSDLQNGDLPADAARGPIAF |  |  | binds
